Reference: article PMC8448731 (Nature Communications, 2021)

Molecular target: T1, SARS-CoV-2 spike RBD with C-terminal 3xFlag tag and N-terminal signal peptide of the spike (RBD-3xFlag) (SARS-CoV-2, Wuhan-Hu-1 type (wild type), UniProt P0DTC2)
T1 construct: also called RBD-3×Flag; wild-type RBD; not shown: 3xFlag, C-terminal, kept
Experiment: ELISA
Details: one partner purified

Binder	binding result
SR1 (VHH, not shown: 6xHis, C-terminal, kept) VHH: EVQLVESGGGLVQAGDSLRLSCAASGKTGRSVIMGWFRQAPDKEREFVATITRGDDTTNYADSVKGRFTISRDDARNTVYLQMNSLKPEDTAVYYCAAVYFVNDCIVDYWGQGTQVTVSS	binds
SR2 (VHH, not shown: 6xHis, C-terminal, kept) VHH: EVQLVESGGGLVQAGDSLRLSCAASGAFGSNVFMGWFRQAPGKEREFVASITPHHTVTDYADSVRGRFSISADSAKNTVYLQMNSLKPEDTAVYYCAAAIYRNASVLDYWGQGTQVTVSS	binds
SR12c3 (VHH, not shown: 6xHis, C-terminal, kept) VHH: EVQLVESGGGLVQAGDSLRLSCAASGAIVHVFAMGWFRQAPGKEREFVASINLDNDVTNYADSVKGRFTISRDDARNTVYLQMNSLKPEDTAVYYCNATIFTDSGLGDYWGQGTQVTVSS	binds
SR12 (VHH, not shown: 6xHis, C-terminal, kept) VHH: EVQLVESGGGLVQAGDSLRLSCAASGAIVHVFAMGWFRQAPGKEREFVASINLDNDATNYADSVKGRFTISRDDARNTVYLQMNSLKPEDTAVYYCNATIFMDSDLGDYWGQGTQVTVSS	binds
SR6c3 (VHH, not shown: 6xHis, C-terminal, kept) VHH: EVQLVESGGGLVQAGDSLRLSCAASGDCHVLWRMGWFRQAPGKEREFVAAISLDGQFTNYADSVRGRFSISADSAKNTVYLQMNSLKPEDTAVYYCAALPFLDYWGQGTQVTVSS	binds
SR6v1 (VHH, not shown: 6xHis, C-terminal, kept) VHH: EVQLVESGGGLVQAGDSLRLSCAASGDSHVLWRMGWFRQAPGKEREFVAAISLDGQFTNYADSVRGRFSISADSAKNTVYLQMNSLKPEDTAVYYCAALPFLDYWGQGTQVTVSS	binds
SR6v7 (VHH, not shown: 6xHis, C-terminal, kept) VHH: EVQLVESGGGLVQAGDSLRLSCAASGDSYILWRMGWFRQAPGKEREFVAAISLDGQFTNYADSVRGRFSISADSAKNTVYLQMNSLKPEDTAVYYCAALPFLDYWGQGTQVTVSS	binds
SR6v9 (VHH, not shown: 6xHis, C-terminal, kept) VHH: EVQLVESGGGLVQAGDSLRLSCAASGDSHVLWRMGWFRQAPGKEREFVAAISLDGQFTNYADSVRGRFSISADSAKYTVYLQMNSLKPEDTAVYYCAALPFLDYWGQGTQVTVSS	binds
